Results from article PMC7614228, “Structural maturation of SYCP1-mediated meiotic chromosome synapsis by SYCE3” (Nature structural & molecular biology, 2023).
“And” between values parts separate entries of the source, which are not always exact repeats. Equal entries are not always repeated.

B1: SYCP1αNcore (amino-acids 206-362) (domain or fragment, human, UniProt Q15431 206-362, looked up)
chain: ETRQVYMDLNNNIEKMITAFEELRVQAENSRLEMHFKLKEDYEKIQHLEQEYKKEINDKEKQVSLLLIQITEKENKMKDLTFLLEESRDKVNQLEEKTKLQSENLKQSIEKQHHLTKELEDIKVSLQRSVSTQKALEEDLQIATKTICQLTEEKETQ
notes: SYCP1 αNcore (tetrameric core), amino-acids 206-362; Tetramer alone (SEC-MALS); two chains in the 2:1 complex with SYCE3; also called SYCP1 tetrameric core; source: E. coli BL21(DE3), purified alone or co-expressed and co-purified with SYCE3 (amylose, TEV, anion exchange, SEC); not shown: MBP, N-terminal, cleaved
B2: MBP-SYCP1αNcore (amino-acids 206-362) (domain or fragment, human, UniProt Q15431 206-362, looked up)
chain: ETRQVYMDLNNNIEKMITAFEELRVQAENSRLEMHFKLKEDYEKIQHLEQEYKKEINDKEKQVSLLLIQITEKENKMKDLTFLLEESRDKVNQLEEKTKLQSENLKQSIEKQHHLTKELEDIKVSLQRSVSTQKALEEDLQIATKTICQLTEEKETQ
notes: SYCP1 αNcore (tetrameric core), amino-acids 206-362; source: E. coli BL21(DE3), co-expressed with SYCE3 constructs; in lysate (amylose pull-down) or co-purified (amylose, anion exchange, SEC); not shown: MBP, N-terminal, kept
B3: SYCP1αN (amino-acids 101-362) (domain or fragment, human, UniProt Q15431 101-362, looked up)
chain: GLSRVYSKLYKEAEKIKKWKVSTEAELRQKESKLQENRKIIEAQRKAIQELQFGNEKVSLKLEEGIQENKDLIKENNATRHLCNLLKETCARSAEKTKKYEYEREETRQVYMDLNNNIEKMITAFEELRVQAENSRLEMHFKLKEDYEKIQHLEQEYKKEINDKEKQVSLLLIQITEKENKMKDLTFLLEESRDKVNQLEEKTKLQSENLKQSIEKQHHLTKELEDIKVSLQRSVSTQKALEEDLQIATKTICQLTEEKETQ
notes: SYCP1 α-helical N-terminal region, amino-acids 101-362; source: E. coli BL21(DE3), purified, alone or co-expressed and co-purified with SYCE3
B4: MBP-SYCP1αN (domain or fragment, human, UniProt Q15431 101-362, looked up)
chain: GLSRVYSKLYKEAEKIKKWKVSTEAELRQKESKLQENRKIIEAQRKAIQELQFGNEKVSLKLEEGIQENKDLIKENNATRHLCNLLKETCARSAEKTKKYEYEREETRQVYMDLNNNIEKMITAFEELRVQAENSRLEMHFKLKEDYEKIQHLEQEYKKEINDKEKQVSLLLIQITEKENKMKDLTFLLEESRDKVNQLEEKTKLQSENLKQSIEKQHHLTKELEDIKVSLQRSVSTQKALEEDLQIATKTICQLTEEKETQ
notes: SYCP1αN, amino-acids 101-362; source: E. coli BL21(DE3), co-purified with His-SYCE3

Experiments:
[1] = target: the molecule itself; assay: SEC-MALS; proteins in isolation, 5-20 mg/ml; Superdex 200 Increase, 20 mM Tris pH 8.0, 150 mM KCl, 2 mM DTT
[2] = target: the molecule itself; assay: SEC-MALS; co-expressed and co-purified SYCP1-SYCE3 complexes, 5-20 mg/ml; 20 mM Tris pH 8.0, 150 mM KCl, 2 mM DTT (Superose 6 Increase for MBP-SYCP1αN-His-SYCE3)
[3] = target: B1; assay: as above; settings: both partners purified
[4] = target: B2; assay: as above; settings: both partners purified
MBP-SYCP1αN = target: B4; assay: as above; settings: both partners purified
[5] = target: B1; assay: ITC; SYCE3 (400 μM) injected into SYCP1αNcore (70 μM) at 30°C; 25 mM Tris pH 8.0, 250 mM KCl, 2 mM DTT; apparent affinity; settings: both partners purified
[6] = target: B3; assay: SEC-MALS; co-expressed and co-purified SYCP1-SYCE3 complexes, 5-20 mg/ml; 20 mM Tris pH 8.0, 150 mM KCl, 2 mM DTT (Superose 6 Increase for MBP-SYCP1αN-His-SYCE3); settings: both partners purified

## B1
[1]
  stoichiometry N: 4
[2]
  stoichiometry N: 2 SYCP1 chains in the complex with SYCE3

## B2
[2]
  stoichiometry N: 2 SYCP1 chains in the complex with SYCE3

## B3
[2]
  stoichiometry N: 2 SYCP1 chains in the 2:1 complex with SYCE3 and 4 SYCP1 chains in the 4:2 complex with SYCE3

## B4
[2]
  stoichiometry N: 2 SYCP1 chains in the 2:1 complex with SYCE3 and 4 SYCP1 chains in the 4:2 complex with SYCE3

B5: SYCP1αN V105E L109E (domain or fragment, human, UniProt Q15431 101-362, looked up)
chain: GLSREYSKEYKEAEKIKKWKVSTEAELRQKESKLQENRKIIEAQRKAIQELQFGNEKVSLKLEEGIQENKDLIKENNATRHLCNLLKETCARSAEKTKKYEYEREETRQVYMDLNNNIEKMITAFEELRVQAENSRLEMHFKLKEDYEKIQHLEQEYKKEINDKEKQVSLLLIQITEKENKMKDLTFLLEESRDKVNQLEEKTKLQSENLKQSIEKQHHLTKELEDIKVSLQRSVSTQKALEEDLQIATKTICQLTEEKETQ
notes: SYCP1αN, amino-acids 101-362, with V105E L109E; source: E. coli BL21(DE3), in complex with SYCE3
[2]
  stoichiometry N: 2 SYCP1 chains in the complex with SYCE3

B6: SYCP1αN ΔNtip (domain or fragment, human, UniProt Q15431 112-362, looked up)
chain: EAEKIKKWKVSTEAELRQKESKLQENRKIIEAQRKAIQELQFGNEKVSLKLEEGIQENKDLIKENNATRHLCNLLKETCARSAEKTKKYEYEREETRQVYMDLNNNIEKMITAFEELRVQAENSRLEMHFKLKEDYEKIQHLEQEYKKEINDKEKQVSLLLIQITEKENKMKDLTFLLEESRDKVNQLEEKTKLQSENLKQSIEKQHHLTKELEDIKVSLQRSVSTQKALEEDLQIATKTICQLTEEKETQ
notes: SYCP1αN (101-362) with the αNtip (101-111) deleted; also called SYCP1 ΔNtip; source: E. coli BL21(DE3), co-purified with SYCE3
[2]
  stoichiometry N: 2 SYCP1 chains in the complex with SYCE3

B7: SYCP1 αCore-ΔNtip (amino-acids 112-783) (domain or fragment, human, UniProt Q15431 112-783, looked up)
chain: EAEKIKKWKVSTEAELRQKESKLQENRKIIEAQRKAIQELQFGNEKVSLKLEEGIQENKDLIKENNATRHLCNLLKETCARSAEKTKKYEYEREETRQVYMDLNNNIEKMITAFEELRVQAENSRLEMHFKLKEDYEKIQHLEQEYKKEINDKEKQVSLLLIQITEKENKMKDLTFLLEESRDKVNQLEEKTKLQSENLKQSIEKQHHLTKELEDIKVSLQRSVSTQKALEEDLQIATKTICQLTEEKETQMEESNKARAAHSFVVTEFETTVCSLEELLRTEQQRLEKNEDQLKILTMELQKKSSELEEMTKLTNNKEVELEELKKVLGEKETLLYENKQFEKIAEELKGTEQELIGLLQAREKEVHDLEIQLTAITTSEQYYSKEVKDLKTELENEKLKNTELTSHCNKLSLENKELTQETSDMTLELKNQQEDINNNKKQEERMLKQIENLQETETQLRNELEYVREELKQKRDEVKCKLDKSEENCNNLRKQVENKNKYIEELQQENKALKKKGTAESKQLNVYEIKVNKLELELESAKQKFGEITDTYQKEIEDKKISEENLLEEVEKAKVIADEAVKLQKEIDKRCQHKIAEMVALMEKHKHQYDKIIEERDSELGLYKSKEQEQSSLRASLEIELSNLKAELLSVKKQLEIEREEKEKLKREAKE
notes: SYCP1 α-helical core without the αNtip, amino-acids 112-783; also called SYCP1's full α-helical core, in which αNtips were deleted; source: E. coli BL21(DE3), purified, alone or in complex with SYCE3
[1]
  stoichiometry N: 4
[2]
  stoichiometry N: 2 SYCP1 chains in the complex with SYCE3

B8: SYCE3 α1-α2 (amino-acids 12-88) (domain or fragment, human, UniProt A1L190 12-88, looked up)
chain: DNMLKMLSDLNKDLEKLLEEMEKISVQATWMAYDMVVMRTNPTLAESMRRLEDAFVNCKEEMEKNWQELLHETKQRL
notes: SYCE3 α1-α2, amino-acids 12-88; source: E. coli BL21(DE3), co-purified with SYCP1αNcore; not shown: His or His-MBP, N-terminal, cleaved
[3]
  stoichiometry N: 2 SYCP1 chains per SYCE3 chain

B9: SYCE3 P53Q (natural protein, human, UniProt A1L190 1-88, looked up)
chain: MDDADPEERNYDNMLKMLSDLNKDLEKLLEEMEKISVQATWMAYDMVVMRTNQTLAESMRRLEDAFVNCKEEMEKNWQELLHETKQRL
notes: SYCE3 with P53Q; source: E. coli BL21(DE3), co-purified with SYCP1αNcore; not shown: His or His-MBP, N-terminal, cleaved
[3]
  stoichiometry N: 2 SYCP1 chains per SYCE3 chain

B10: His-SYCE3 (full-length, amino-acids 1-88) (natural protein, human, UniProt A1L190 1-88, looked up)
chain: MDDADPEERNYDNMLKMLSDLNKDLEKLLEEMEKISVQATWMAYDMVVMRTNPTLAESMRRLEDAFVNCKEEMEKNWQELLHETKQRL
notes: SYCE3, full-length = amino-acids 1-88; source: E. coli BL21(DE3), co-expressed with MBP fusions; in lysate (amylose pull-down) or co-purified; not shown: His, N-terminal, kept
[4]
  stoichiometry N: 2 SYCP1 chains per SYCE3 chain
MBP-SYCP1αN
  stoichiometry N: 2 SYCP1 chains per SYCE3 chain (2:1) and 4 SYCP1 chains with 2 SYCE3 chains (4:2)

B11: MBP-SYCE3 (natural protein, human, UniProt A1L190 1-88, looked up)
chain: MDDADPEERNYDNMLKMLSDLNKDLEKLLEEMEKISVQATWMAYDMVVMRTNPTLAESMRRLEDAFVNCKEEMEKNWQELLHETKQRL
notes: SYCE3 without a stated truncation; source: E. coli BL21(DE3), co-purified with SYCP1αNcore constructs
[4]
  stoichiometry N: 2 SYCP1 chains per SYCE3 chain
[3]
  stoichiometry N: 2 SYCP1 chains per SYCE3 chain

B12: SYCE3 W41E Y44E (natural protein, human, UniProt A1L190 1-88, looked up)
chain: MDDADPEERNYDNMLKMLSDLNKDLEKLLEEMEKISVQATEMAEDMVVMRTNPTLAESMRRLEDAFVNCKEEMEKNWQELLHETKQRL
notes: SYCE3 with W41E Y44E; also called SYCE3 WY; WY mutant; source: E. coli BL21(DE3), purified, alone or co-purified with SYCP1 constructs; not shown: His or His-MBP, N-terminal, cleaved
[5]
  Kd: 0.016 µM
  apparent KD of one replicate: 0.01 µM and 0.022 µM and 0.016 µM
[6]
  stoichiometry N: 2 SYCP1 chains per SYCE3 chain
[3]
  stoichiometry N: 2 SYCP1 chains per SYCE3 chain
